Results from patent US6998254, “Use of ROR for receptors for screening substances useful for the treatment of atherosclerosis” (Merck Patent Gesellschaft).

Experiments:
Details in all cases: tags: TnT T7 reticulocyte lysate from pCMX-hRORα1
hRORα1 (RORA isoform 1) [1] = target: T1, hRORα1 (RORA isoform 1) (Homo sapiens, UniProt P35398 P35398:1-523); assay: competition; 10-100x excess does not compete
T1 sequence: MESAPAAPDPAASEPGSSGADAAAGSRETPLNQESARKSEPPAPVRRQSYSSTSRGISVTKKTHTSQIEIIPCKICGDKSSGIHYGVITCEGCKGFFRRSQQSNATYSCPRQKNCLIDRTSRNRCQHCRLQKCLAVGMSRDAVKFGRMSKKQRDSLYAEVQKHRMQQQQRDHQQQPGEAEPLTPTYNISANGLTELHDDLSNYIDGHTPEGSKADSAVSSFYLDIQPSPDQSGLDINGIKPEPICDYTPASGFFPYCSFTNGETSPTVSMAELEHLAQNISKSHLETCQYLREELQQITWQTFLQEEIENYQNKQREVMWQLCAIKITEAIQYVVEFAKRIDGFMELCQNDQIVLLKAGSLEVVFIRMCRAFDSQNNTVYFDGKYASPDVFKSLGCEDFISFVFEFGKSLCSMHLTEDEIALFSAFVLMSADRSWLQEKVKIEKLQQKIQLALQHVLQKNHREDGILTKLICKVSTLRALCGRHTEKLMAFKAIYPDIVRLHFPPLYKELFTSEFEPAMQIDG
Procedure: (§1) During the competition experiments, increasing concentrations of nonlabelled double-stranded oligo-nucleotides (molar excess of 10 to 100 fold) were added to the mixtures and incubated for 15 min at room temperature before the addition of the radioactive probes. After addition of the radioactive probes, the reticulocyte lysates were added to the mixture and incubated for 15 min at room temperature before the separation of the protein/DNA complexes by electrophoresis on a polyacrylamide gel (4%) in a 0.25× Tris-borate-EDTA buffer at room temperature (50).
In FIG. 7, the −198/+24 fragment of the promoter of the human gene for apo C-III was amplified by PCR with the aid of the primers 82 and 512 (Table 1) previously phosphoryiated at the 5' end by poly-nucleotide kinase in the presence of [γ-^32P]ATP. This probe was incubated in the presence of reticulocyte lysate (TNT-T7, Promega) programmed to express the hRORα1 receptor according to the protocol defined by the manufacturer or in the presence of control lysate. The DNA/protein complexes were then separated on a non denaturing polyacrylamide gel. After drying, the gel is subjected to autoradiography. The first lane of the gel corresponds to the migration of the probe alone. The second lane corresponds to the migration of the probe incubated in the presence of the control lysate. […]

hRORα1 (RORA isoform 1) [2] = target: T1, hRORα1 (RORA isoform 1); assay: competition; unlabelled competitor 10-100x
Procedure: as §1
In this figure, fragment −90/−64 of the promoter of the human gene for apo C-III was phosphorylated at the 5' ends with polynucleotide kinase in the presence of [γ-^32P]ATP. This probe was incubated in the presence of reticuloycte lysate ("TNT-T7", Promega) programmed to express the hRORα1 receptor according to the protocol defined by the manufacturer or in the presence of control lysate. The DNA/protein complexes were then separated on nondenaturing polyacrylamide gel. After drying, the gel is subjected to autoradiography. The first lane of the gel corresponds to the migration of the probe incubated in the presence of control lysate. The other lanes correspond to the migration of the probe incubated in the presence of lysate programmed to express hRORα1. […]

hRORα1 (RORA isoform 1) [3] = target: T1, hRORα1 (RORA isoform 1); assay: competition; unlabelled competitor 10-100x; remark: listed apart in the source

B1: hCIIITaTaKO (-33/-10) (dsDNA)
DNA 1: GATCGATATAAAACAGGCAGGAACCCTC
DNA 2: GATCGAGGGTTCCTGCCTGTTTTATATC
**Q.** Does B1 bind (hRORα1 (RORA isoform 1) [1])?
**A.** Result: no binding

B2: RORECons (dsDNA)
DNA 1: GATCTTGACCTACATTCTAAGCTG
DNA 2: GATCCAGCTTAGAATGTAGGTCAA
**Q.** Does B2 bind (hRORα1 (RORA isoform 1) [2])?
**A.** Result: binds

B3: rAITaTaWT (-36/-12) (dsDNA)
DNA 1: GATCCACACATATATAGGTCAGGGAAGAAGA
DNA 2: GATCTCTTCTTCCCTGACCTATATATGTGTG
**Q.** Does B3 bind (hRORα1 (RORA isoform 1) [3])?
**A.** Result: binds
